How the values were obtained:
[1] = biological target: T1, HN receptor (HNR; CNTF-R/WSX-1/gp130) on F11 cells (Mus musculus, UniProt O70394+O88507); assay: Immunofluorescence-based binding assay (2): biotin-HN / biotin-HNG binding to F11 cells; conditions: biotin-HN; F11 cells with endogenous HNR or transfected with CNTF-R/WSX-1/gp130
T1 construct: endogenous in cells; host or cells: F11 neurohybrid cells
T1 sequence (O70394 25-623): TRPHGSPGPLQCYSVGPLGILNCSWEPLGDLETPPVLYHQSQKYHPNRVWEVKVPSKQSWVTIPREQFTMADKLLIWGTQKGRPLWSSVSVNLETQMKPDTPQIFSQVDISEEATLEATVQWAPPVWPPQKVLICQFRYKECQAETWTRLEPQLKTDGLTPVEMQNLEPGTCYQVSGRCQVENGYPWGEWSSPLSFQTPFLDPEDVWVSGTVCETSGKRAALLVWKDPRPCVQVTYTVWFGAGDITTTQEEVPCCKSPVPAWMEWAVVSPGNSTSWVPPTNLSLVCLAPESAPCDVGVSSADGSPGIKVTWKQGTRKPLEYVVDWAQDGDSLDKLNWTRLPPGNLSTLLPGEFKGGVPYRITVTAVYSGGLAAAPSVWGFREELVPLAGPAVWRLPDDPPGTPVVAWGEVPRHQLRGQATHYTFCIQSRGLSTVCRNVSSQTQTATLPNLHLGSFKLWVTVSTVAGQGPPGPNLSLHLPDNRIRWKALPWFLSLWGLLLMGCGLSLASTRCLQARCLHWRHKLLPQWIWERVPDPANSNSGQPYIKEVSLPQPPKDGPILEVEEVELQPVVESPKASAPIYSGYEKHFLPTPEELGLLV
T1 sequence (O88507 23-342): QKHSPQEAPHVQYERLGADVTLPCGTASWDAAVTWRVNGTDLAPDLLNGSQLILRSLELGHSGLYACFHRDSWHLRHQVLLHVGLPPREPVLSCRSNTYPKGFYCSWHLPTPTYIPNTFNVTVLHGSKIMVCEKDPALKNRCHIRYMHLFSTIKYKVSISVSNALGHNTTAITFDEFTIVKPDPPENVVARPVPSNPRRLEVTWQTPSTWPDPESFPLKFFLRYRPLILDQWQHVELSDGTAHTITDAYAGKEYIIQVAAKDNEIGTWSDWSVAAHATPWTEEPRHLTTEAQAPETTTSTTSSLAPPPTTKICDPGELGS
T1 sequence (Q00560 23-917 partner): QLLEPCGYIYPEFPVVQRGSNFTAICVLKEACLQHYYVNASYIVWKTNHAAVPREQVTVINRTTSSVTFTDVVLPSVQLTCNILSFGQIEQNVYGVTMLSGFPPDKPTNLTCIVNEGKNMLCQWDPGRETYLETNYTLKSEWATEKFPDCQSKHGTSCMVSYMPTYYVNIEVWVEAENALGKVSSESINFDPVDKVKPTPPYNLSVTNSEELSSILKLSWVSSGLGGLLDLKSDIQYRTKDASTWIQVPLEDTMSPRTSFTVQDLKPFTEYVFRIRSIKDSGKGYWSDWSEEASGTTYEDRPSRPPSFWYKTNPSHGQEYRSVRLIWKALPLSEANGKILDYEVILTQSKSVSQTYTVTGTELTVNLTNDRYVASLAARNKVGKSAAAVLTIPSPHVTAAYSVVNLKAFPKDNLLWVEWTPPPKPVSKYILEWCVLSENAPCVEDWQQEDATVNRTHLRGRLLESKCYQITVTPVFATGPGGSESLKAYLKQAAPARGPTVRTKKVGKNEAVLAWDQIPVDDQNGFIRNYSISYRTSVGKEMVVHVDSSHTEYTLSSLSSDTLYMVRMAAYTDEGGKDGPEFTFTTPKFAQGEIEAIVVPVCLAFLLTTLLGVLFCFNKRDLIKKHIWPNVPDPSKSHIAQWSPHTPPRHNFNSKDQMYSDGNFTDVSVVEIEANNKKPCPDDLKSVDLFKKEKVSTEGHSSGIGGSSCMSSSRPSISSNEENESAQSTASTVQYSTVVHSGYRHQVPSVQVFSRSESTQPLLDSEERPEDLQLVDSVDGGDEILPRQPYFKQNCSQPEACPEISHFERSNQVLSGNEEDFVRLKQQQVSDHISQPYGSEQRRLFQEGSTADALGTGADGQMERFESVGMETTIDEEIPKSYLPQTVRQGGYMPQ
Description: A) F11 cells were seeded on 96-well plates coated with poly-L-lysine (7×10^3 cells/well). An indicated amount of biotin-HN or biotin-HNG was added to the cells with or without 10 μM of unlabelled HNG or HNA, followed by a binding assay based on immunofluorescence reaction (2) (left panels). On the other hand, F11 cells were transfected with 0.5 μg of pcDNA3.1/GS-human CNTF-R, pEF1/MycHis-human WSX-1, and 1.0 μg of pCAG-human gp130. At 24 hrs after the transfection, the cells were re-seeded on 96-well plates coated with poly-L-lysine (7×10^3 cells/well). After 36 hrs the re-seeding, an indicated amount of biotin-HN or biotin-HNG was added to the cells with or without 10 μM of unlabeled HNG or HNA, followed by a binding assay based on immunofluorescence reaction (2) (right panels).
B) F11 cells were transfected with 0.5 μg of pRNA-U1.6/Shuttle vector, pRNA-U6.1/Shuttle-WSX-1 siRNA, pRNA-U6.1/Shuttle-CNTF-R siRNA, both pRNA-U6.1/Shuttle-WSX-1 siRNA and pRNA-U6.1/Shuttle-CNTF-R siRNA (0.5 μg each), pRNA-U6.1/Shuttle-FPR2 siRNA or pRNA-U6.1/Shuttle-LIFR siRNA. The total amount of vectors was adjusted to be 1.0 μg by including a backbone vector. At 24 hrs after the transfection, an indicated amount of biotin-HNG was added with or without unlabeled HNG, followed by a binding assay based on immunofluorescence reaction (2) at 72 hrs after the transfection.
E) F11 cells on 6-well plate (7×10^4 cells/well) were transfected with 1.0 μg of pRNA-U6.1/Shuttle vector, pRNA-U6.1/Shuttle-Bax siRNA, or both pRNA-U6.1/Shuttle-WSX-1 siRNA and pRNA-U6.1/Shuttle-CNTF-R siRNA (0.5 μg each). At 72 hrs after the transfection, the cells were added with an indicated amount of biotin-HN with or without unlabeled HN or HNA (100 μM) and subjected to an HN-binding assay based on immunofluorescence.
F11 cells (7×10^4/well in 6-well plates) were replated into 96-well plates (7×10^3 cells/well) at 24 hrs after transfection with indicated amounts of the plasmids encoding mycHis-WSX or V5-CNTF-R, and with PCAG-human gp130 if required. At 36 hrs after transfection, the cells were added with biotin-labeled HN or HNG of indicated concentrations in the presence or the absence of HNG (S14G-HN) or HNA (C8A-HN) of indicated concentrations (Hashimoto et al., 2001 a). After 6 hrs incubation, they were fixed with 4% paraformaldehyde in PBS for 30 min. After washing with PBS, cells were stained with FITC-conjugated avidin (Molecularprobe, Eugene, Oreg., USA). Immunofluorescence intensity was measured (excitation=485 nm, emission=535 nm) with a spectrofluorometer (Wallac1420 ARVOsx Multi Label Counter). Immunohistochemical analysis was done with a laser-scanning, confocal microscope LSM (Carl Zeiss, Germany).

[2] = tested on: primary cortical neurons (PCNs); assay: Aβ neurotoxicity in primary cortical neurons, WST-8 / Calcein / LDH; format: cell-based, mouse; conditions: 25 μM Aβ; for inhibition of neurotoxicity by Aβ: cytokine alone, physiological levels (up to 100 ng/ml)
Description: B) PCNs were incubated with 25 μM Aβ (upper) in the presence of 10 μg of recombinant soluble human gp130 (lower “+”) or BSA (lower “−”). Cell viability was determined by WST-8 assay (upper) or Calcein fluorescence assay (lower) at 72 hr after the onset of treatment with Aβ.
C) PCNs were incubated with 25 μM Aβ (1-43) in the presence of 1 μg of neutralizing anti-mouse gp130 antibody (RX435) or control IgG. Cell viability and cell mortality were determined by Calcein fluorescence (left panel) and LDH assays (right panel), respectively, at 72 hr after the onset of treatment with Aβ (1-43).
[…] At 72 hr after incubation, the cells were harvested for WST-8 assays or/and Calcein fluorescence assays to show cell viability.
B) The soluble IL-6 receptor-α (sIL-6R) or the soluble CNTF-R (100 ng/ml) were added to the cells as in the above A), followed by the stimulation with its ligand, IL-6 or CNTF (100 ng/ml), respectively to show the effects on the neuronal cell death due to Aβ. The right and left graphs show the cell viabilities determined by WST-8 assays and Calcein fluorescence assays, respectively.
C) The neutralizing antibodies (1 μg) for the mouse gp130, mouse LIFR, mouse IL-11R and rat CNTF-R were added as in the above A), and cell viability was determined by Calcein fluorescence assays after 72 hours.
WST-8 assay was performed at 72 hrs after the treatment.
The primary culture of mouse cortical neurons was prepared as described previously (Sudo et al., 2000). Briefly, primary cortical neurons, obtained from embryonic day 14 (E14) ICR mice were seeded in poly-L-lysine-coated 96 well plates (Sumitomo Bakelite) at 2.5 or 5.0×10^4 cells/well in Neuron Medium (Sumitomo Bakelite) (Hashimoto et al., 2003; Niikura et al., 2004). Purity of neurons by this method was >98%. After 3 days, the culture medium was replaced with DMEM with N2 supplement. On the fourth day in vitro, 25 μM of Aβ (1-42) was added in association with indicated concentrations of HN or cytokines in the presence or the absence of soluble cytokine receptors or neutralizing antibodies. At 72 hrs after the onset of treatment, cell viability was assessed by WST-8 assay and/or Calcein fluorescence assay and cell mortality was assessed by the Trypan blue exclusion assay and LDH assay (Hashimoto et al, 2000, 2001 a b, 2003).

Molecule: CC[C@H](C)[C@H](NC(=O)[C@H](CCC(=O)O)NC(=O)[C@H](CO)NC(=O)[C@@H](NC(=O)[C@H](CC(C)C)NC(=O)[C@H](CC(C)C)NC(=O)[C@H](CC(C)C)NC(=O)[C@H](CC(C)C)NC(=O)[C@H](CS)NC(=O)[C@H](CO)NC(=O)[C@H](Cc1ccccc1)NC(=O)CNC(=O)[C@H](CCCNC(=N)N)NC(=O)[C@@H]1CCCN1C(=O)[C@H](C)NC(=O)[C@@H](N)CCSC)[C@@H](C)O)C(=O)N[C@@H](CC(=O)O)C(=O)N[C@@H](CC(C)C)C(=O)N1CCC[C@H]1C(=O)N[C@H](C(=O)N[C@@H](CCCCN)C(=O)N[C@@H](CCCNC(=N)N)C(=O)N[C@@H](CCCNC(=N)N)C(=O)N[C@@H](C)C(=O)O)C(C)C [HN, Humanin]
- Kd [1]: 1 to 10 µM

B1: OSM: human OncostatinM, recombinant cytokine (protein, UniProt P13725 26-221, looked up)
Oncostatin-M: AAIGSCSKEYRVLLGQLQKQTDLMQDTSRLLDPYIRIQGLDVPKLREHCRERPGAFPSEETLRGLGRRGFLQTLNATLGCVLHRLADLEQRLPKAQDLERSGLNIEDLEKLQMARPNILGLRNNIYCMAQLLDNSDTAEPTKAGRGASQPPTPTPASDAFQRKLEGCRFLHGYHRFMHSVGRVFSKWGESPNRSRR
- inhibition of neurotoxicity by Aβ [2]: did not inhibit

B2: CT-1: mouse cardiotropin-1, recombinant cytokine (protein, UniProt Q60753 1-203, looked up)
Cardiotrophin-1: MSQREGSLEDHQTDSSISFLPHLEAKIRQTHNLARLLTKYAEQLLEEYVQQQGEPFGLPGFSPPRLPLAGLSGPAPSHAGLPVSERLRQDAAALSVLPALLDAVRRRQAELNPRAPRLLRSLEDAARQVRALGAAVETVLAALGAAARGPGPEPVTVATLFTANSTAGIFSAKVLGFHVCGLYGEWVSRTEGDLGQLVPGGVA
- inhibition of neurotoxicity by Aβ [2]: did not inhibit

B3: recombinant soluble human gp130: recombinant soluble human gp130 consisting of the extracellular domain of human gp130; dominant-negative form (protein, UniProt P40189 23-619, looked up)
extracellular domain: ELLDPCGYISPESPVVQLHSNFTAVCVLKEKCMDYFHVNANYIVWKTNHFTIPKEQYTIINRTASSVTFTDIASLNIQLTCNILTFGQLEQNVYGITIISGLPPEKPKNLSCIVNEGKKMRCEWDGGRETHLETNFTLKSEWATHKFADCKAKRDTPTSCTVDYSTVYFVNIEVWVEAENALGKVTSDHINFDPVYKVKPNPPHNLSVINSEELSSILKLTWTNPSIKSVIILKYNIQYRTKDASTWSQIPPEDTASTRSSFTVQDLKPFTEYVFRIRCMKEDGKGYWSDWSEEASGITYEDRPSKAPSFWYKIDPSHTQGYRTVQLVWKTLPPFEANGKILDYEVTLTRWKSHLQNYTVNATKLTVNLTNDRYLATLTVRNLVGKSDAAVLTIPACDFQATHPVMDLKAFPKDNMLWVEWTTPRESVKKYILEWCVLSDKAPCITDWQQEDGTVHRTYLRGNLAESKCYLITVTPVYADGPGSPESIKAYLKQAPPSKGPTVRTKKVGKNEAVLEWDQLPVDVQNGFIRNYTIFYRTIIGNETAVNVDSSHTEYTLSSLTSDTLYMVRMAAYTDEGGKDGPEFTFTTPKFAQGEIE
modifications: extracellular domain
notes: recombinant soluble human gp130 consisting of the extracellular domain of human gp130; dominant-negative form
- effect on HN-mediated neuroprotection ([2]; PCNs): complete suppression

B4: IL-11: recombinant cytokine of the IL-6 family (protein, UniProt P47873 22-199, looked up)
Interleukin-11: PGPPAGSPRVSSDPRADLDSAVLLTRSLLADTRQLAAQMRDKFPADGDHSLDSLPTLAMSAGTLGSLQLPGVLTRLRVDLMSYLRHVQWLRRAGGPSLKTLEPELGALQARLERLLRRLQLLMSRLALPQAAPDQPVIPLGPPASAWGSIRAAHAILGGLHLTLDWAVRGLLLLKTRL
- inhibition of neurotoxicity by Aβ [2]: did not inhibit

— patent US8173771B2, “Humanin receptor or humanin-like polypeptide receptor” (Keio Univeristy, priority 2005, dated 2012)
